Paper PMC8860596 (Nucleic Acids Research, 2021)

Legend:
[1] = target: the molecule itself; test: native gel or EMSA
[2] = target: T1, Cre K201A (P1 phage, UniProt P06956 1-343, K201A); test: EMSA
[3] = target: Cre deltaN (CreΔαN) (P1 phage, UniProt P06956 1-330); test: EMSA
[4] = target: T2, CreYin;CreYang (P1 phage;P1 phage, UniProt P06956;P06956 1-343;1-343, D33A;A36V;R192A|R72E;L115D;R119D); test: EMSA
[5] = target: T3, CreYang (P1 phage, UniProt P06956 1-343, R72E;L115D;R119D); test: EMSA
[6] = target: T4, CreYin (P1 phage, UniProt P06956 1-343, D33A;A36V;R192A); test: EMSA
[7] = target: T2, CreYin;CreYang; test: cryo-EM
[8] = target: T1, Cre K201A; test: cryo-EM
[9] = target: T2, CreYin;CreYang; test: native MS
[10] = target: T4, CreYin; test: native MS
[11] = target: T3, CreYang; test: native MS
[12] = target: T4, CreYin; test: cryo-EM

B1: Cre recombinase K201A (cleavage-deficient variant) (enzyme, P1 phage)
chain: MSNLLTVHQNLPALPVDATSDEVRKNLMDMFRDRQAFSEHTWKMLLSVCRSWAAWCKLNNRKWFPAEPEDVRDYLLYLQARGLAVKTIQQHLGQLNMLHRRSGLPRPSDSNAVSLVMRRIRKENVDAGERAKQALAFERTDFDQVRSLMENSDRCQDIRNLAFLGIAYNTLLRIAEIARIRVKDISRTDGGRMLIHIGRTATLVSTAGVEKALSLGVTKLVERWISVSGVADDPNNYLFCRVRKNGVAAPSATSQLSTRALEGIFEATHRLIYGAKDDSGQRYLAWSGHSARVGAARDMARAGVSIPEIMQAGGWTNVNIVMNYIRNLDSETGAMVRLLEDGD
stoichiometry N [1]: 4

B2: loxP-54 (dsDNA)
DNA 1: CGAGTGGCCGATAACTTCGTATAATGTATGCTATACGAAGTTATGCGGCGTGAC
DNA 2: GTCACGCCGCATAACTTCGTATAGCATACATTATACGAAGTTATCGGCCACTCG
binding result [2]: binds | binding result [3]: binds | binding result [4]: binds | binding result [5]: binds | binding result [6]: binds

B3: loxP-44 (dsDNA)
DNA 1: CGGCGATAACTTCGTATAATGTATGCTATACGAAGTTATGCGGC
DNA 2: GCCGCATAACTTCGTATAGCATACATTATACGAAGTTATCGCCG
binding result [7]: binds | binding result [8]: binds

B4: loxP-38 (dsDNA)
DNA 1: CGATAACTTCGTATAATGTATGCTATACGAAGTTATGC
DNA 2: GCATAACTTCGTATAGCATACATTATACGAAGTTATCG
binding result [9]: binds | binding result [10]: binds | binding result [11]: binds

B5: loxA hairpin (structured_DNA)
DNA: GCATAACTTCGTATAGCATATGCGAAGCATATGCTATACGAAGTTATGC
binding result [12]: binds
